In PMC9307952, “Lipoate protein ligase B primarily recognizes the C8-phosphopantetheine arm of its donor substrate and weakly binds the acyl carrier protein” (The Journal of Biological Chemistry, 2022):
Where a chain is given by its changes, count along the chain named. Names and notes keep the numbering of the source.

B1: E. coli LipB (EcLipB) (Escherichia coli K-12; G72A/G73A) (protein)
chain: MYQDKILVRQLGLQPYEPISQAMHEFTDTRDDSTLDEIWLVEHYPVFTQGQAGKAEHILMPGDIPVIQSDRAAQVTYHGPGQQVMYVLLNLKRRKLGVRELVTLLEQTVVNTLAELGIEAHPRADAPGVYVGEKKICSLGLRIRRGCSFHGLALNVNMDLSPFLRINPCGYAGMEMAKISQWKPEATTNNIAPRLLENILALLNNPDFEYITA
B2: E. coli LipB (EcLipB) (Escherichia coli K-12; R71A) (protein)
chain: B1 chain with R71A, A72G, A73G
B3: E. coli LipB (EcLipB) (Escherichia coli K-12; K135A) (protein)
chain: B1 chain with A72G, A73G, K135A

Substrate: CCCCCCCC(=O)SCCNC(=O)CCNC(=O)[C@H](O)C(C)(C)COP(=O)(O)OP(=O)(O)OC[C@H]1O[C@@H](n2cnc3c(N)ncnc32)[C@H](O)[C@@H]1OP(=O)(O)O
Assay: purified protein
Settings: 5 μM LipB, 25 μM E. coli GcvH as acceptor, 0-160 μM C8-CoA, 50 mM Tris-HCl, 200 mM NaCl, pH 8.0, 30 °C

| Protein | Km | Vmax | kcat |
| --- | --- | --- | --- |
| B1 | 6.71 ± 0.98 µM | 0.32 µmol/min | 0.001 s⁻¹ |
| B2 | 34.39 ± 8.8 µM | 0.26 µmol/min | 0.000833 s⁻¹ |
| B3 | 42.37 ± 4.58 µM | 0.2 µmol/min | 0.000667 s⁻¹ |
